# From IntAct's records for PubMed 22402663
# B1: Forkhead box protein O3 (Mus musculus), Q9WVH4 (parent)
# chain: MAEAPASPVPLSPLEVELDPEFEPQSRPRSCTWPLQRPELQASPAKPSGETAADSMIPEEDDDEDDEDGGGRASSAMVIGGGVSSTLGSGLLLEDSAMLLAPGGQDLGSGPASAAGALSGGTPTQLQPQQPLPQPQPGAAGGSGQPRKCSSRRNAWGNLSYADLITRAIESSPDKRLTLSQIYEWMVRCVPYFKDKGDSNSSAGWKNSIRHNLSLHSRFMRVQNEGTGKSSWWIINPDGGKSGKAPRRRAVSMDNSNKYTKSRGRAAKKKAALQAAPESADDSPSQLSKWPGSPTSRSSDELDAWTDFRSRTNSNASTVSGRLSPILASTELDDVQDDDGPLSPMLYSSSASLSPSVSKPCTVELPRLTDMAGTMNLNDGLAENLMDDLLDNIALPPSQPSPPGGLMQRGSSFPYTAKSSGLGSPTGSFNSTVFGPSSLNSLRQSPMQTIQENRPATFSSVSHYGNQTLQDLLASDSLSHSDVMMTQSDPLMSQASTAVSAQNARRNVMLRNDPMMSFAAQPTQGSLVNQNLLHHQHQTQGALGGSRALSNSVSNMGLSDSSSLGSAKHQQQSPASQSMQTLSDSLSGSSLYSASANLPVMGHDKFPSDLDLDMFNGSLECDMESIIRSELMDADGLDFNFDSLISTQNVVGLNVGNFTGAKQASSQSWVPG
# partner: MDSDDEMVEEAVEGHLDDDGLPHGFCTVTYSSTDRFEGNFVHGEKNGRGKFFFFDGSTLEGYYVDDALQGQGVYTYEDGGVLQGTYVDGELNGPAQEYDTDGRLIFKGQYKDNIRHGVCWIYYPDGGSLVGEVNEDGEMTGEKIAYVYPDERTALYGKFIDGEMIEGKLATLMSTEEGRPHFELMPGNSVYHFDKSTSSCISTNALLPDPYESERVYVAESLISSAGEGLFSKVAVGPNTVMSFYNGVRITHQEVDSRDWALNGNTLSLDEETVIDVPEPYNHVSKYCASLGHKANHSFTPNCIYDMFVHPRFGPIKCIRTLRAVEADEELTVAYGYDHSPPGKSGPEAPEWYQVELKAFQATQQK
# B2: Histone-lysine N-methyltransferase SETD7 (Homo sapiens), Q8WTS6 (parent)
# chain: B1 partner
# Variants of: B1
# Conditions: with setd7_human SETD7, Q8WTS6
row,Variant,effect of a mutation on the interaction
1,K270R,disrupting interaction

# Variants of: B2
# Conditions: with foxo3_mouse Foxo3, Q9WVH4
row,Variant,effect of a mutation on the interaction
1,MDSDDEMVEEAVEGHLDDDGLPHGFCTVTYSSTDRFEGNFVHGEKNGRGKFFFFDGSTLEGYYVDDALQGQGVYTYEDGGVLQGTYVDGELNGPAQEYDTDGRLIFKGQYKDNIRHGVCWIYYPDGGSLVGEVNEDGEMTGEKIAYVYPDERTALYGKFIDGEMIEGKLATLMSTEEGRPHFELMPGNSVYHFDKSTSSCISTNALLPDPYESERVYVAESLISSAGEGLFSKVAVGPNTVMSFYNGVRITHQEVDSRDWALNGNTLSLDEETVIDVPEPYNHVSKYCASLGHKANASFTPNCIYDMFVHPRFGPIKCIRTLRAVEADEELTVAYGYDHSPPGKSGPEAPEWYQVELKAFQATQQK [H297A],disrupting interaction
